Positions count from the first letter of the chain named. Names and notes keep the numbering of the source. Like-named read-outs stand apart in the source and are kept apart here.
T1: NKp46 mutant 19 (human, UniProt O76036 22-304)
T1 construct: Expressed in transfected HEK293T cells
T1 chain: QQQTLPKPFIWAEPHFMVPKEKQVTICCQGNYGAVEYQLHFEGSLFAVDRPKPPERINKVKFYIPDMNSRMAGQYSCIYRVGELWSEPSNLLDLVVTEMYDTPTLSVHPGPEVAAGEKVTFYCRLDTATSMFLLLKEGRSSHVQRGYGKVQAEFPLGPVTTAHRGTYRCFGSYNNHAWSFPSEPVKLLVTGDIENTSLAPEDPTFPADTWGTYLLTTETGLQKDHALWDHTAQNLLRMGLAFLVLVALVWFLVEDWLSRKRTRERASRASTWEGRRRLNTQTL

T2: NKp46 mutant 6 (human, UniProt O76036 22-304)
T2 construct: Expressed in transfected HEK293T cells
T2 chain: T1 chain with R80A, V81A, A114I, A115S

T3: NKp46 mutant Supp7 (human, UniProt O76036 22-304)
T3 construct: Expressed in transfected HEK293T cells; also called supplementary mutant Supp7
T3 chain: T1 chain with Y100A, A114I, A115S, Y173A

T4: NKp46 mutant 2 (human, UniProt O76036 22-304)
T4 construct: Expressed in transfected HEK293T cells
T4 chain: T1 chain with K20S, E21A, E98A, A114I, A115S

T5: NKp46 mutant Supp8 (human, UniProt O76036 22-304)
T5 construct: Expressed in transfected HEK293T cells; also called supplementary mutant Supp8
T5 chain: T1 chain with P111A, E112A, A114I, A115S

T6: NKp46 mutant Supp6 (human, UniProt O76036 22-304)
T6 construct: Expressed in transfected HEK293T cells; also called supplementary mutant Supp6
T6 chain: T1 chain with E83A, L84A, A114I, A115S

B1: NKp46-4 (antibody, V domains shown)
VH: QVQLQQSAVELARPGASVKMSCKASGYTFTSFTMHWVKQRPGQGLEWIGYINPSSGYTEYNQKFKDKTTLTADKSSSTAYMQLDSLTSDDSAVYYCVRGSSRGFDYWGQGTLVTVSA
VL: DIQMIQSPASLSVSVGETVTITCRASENIYSNLAWFQQKQGKSPQLLVYAATNLADGVPSRFSGSGSGTQYSLKINSLQSEDFGIYYCQHFWGTPRTFGGGTKLEIK
notes: also called Antibody NKp46-4
B2: NKp46-3 IgG1 (antibody, V domains shown)
VH: EVQLQQSGPELVKPGASVKISCKTSGYTFTEYTMHWVKQSHGKSLEWIGGISPNIGGTSYNQKFKGKATLTVDKSSSTAYMELRSLTSEDSAVYYCARRGGSFDYWGQGTTLTVSS
VL: DIVMTQSPATLSVTPGDRVSLSCRASQSISDYLHWYQQKSHESPRLLIKYASQSISGIPSRFSGSGSGSDFTLSINSVEPEDVGVYYCQNGHSFPLTFGAGTKLELK
notes: Chimeric full-length human IgG1; also called NKp46-3 antibody as a full-length human IgG1
B3: CD19-F5-NKp46-3 (bispecific antibody, human IgG1, kappa)
chain 1: not shown
chain 2: not shown
chain 3: DIVMTQSPATLSVTPGDRVSLSCRASQSISDYLHWYQQKSHESPRLLIKYASQSISGIPSRFSGSGSGSDFTLSINSVEPEDVGVYYCQNGHSFPLTFGAGTKLELKASTKGPSVFPLAPSSKSTSGGTAALGCLVKDYFPEPVTVSWNSGALTSGVHTFPAVLQSSGLYSLSSVVTVPSSSLGTQTYICNVNHKPSNTKVDKRVEPKSCDKTH
notes: Heterotrimer with dimeric Fc: first (170), second (169) and third (171) chain
B4: CD19-F6-NKp46-3 (bispecific antibody, human IgG1, kappa)
chain 1: not shown
chain 2: not shown
chain 3: B3 chain 3
notes: As F5 but with N297S: first (173), second (172) and third (174) chain
B5: NKp46-6 (antibody, V domains shown)
VH: QVQLQQPGSVLVRPGASVKLSCKASGYTFTSSWMHWAKQRPGQGLEWIGHIHPNSGISNYNEKFKGKATLTVDTSSSTAYVDLSSLTSEDSAVYYCARGGRFDDWGAGTTVTVSS
VL: DIVMTQSPATLSVTPGDRVSLSCRASQSISDYLHWYQQKSHESPRLLIKYASQSISGIPSRFSGSGSGSDFTLSINSVEPEDVGVYYCQNGHSFLMYTFGGGTKLEIK
notes: not in the list MOLECULES as an antibody; also called antibody NKp46-6; monoclonal antibody NKp46-6

Key:
[1] = biological target: T7, human NKp46 expressed at the cell surface (human, UniProt O76036 22-304); assay: flow cytometry on HEK293T cells transfected with wild-type NKp46, antibody titrated 0.001-1 ug/ml
T7 construct: Wild-type NKp46 on cells (transfected cell lines or NK cells); also called cell line expressing the human NKp46 construct; NKp46 cell line

NKp46 mutant 19 = biological target: T1, NKp46 mutant 19; assay: flow cytometry on HEK293T cells transfected with NKp46 mutant 19 (I135A, S136A), antibody titrated 0.001-1 ug/ml
[2] = biological target: T8, Human NKp46 recombinant proteins (human, UniProt O76036 22-258); assay: SPR, antibody captured on Protein-A chip, human NKp46 injected, 1:1 kinetic model
T8 construct: also called recombinant human NKp46 proteins

NKp46 mutant 6 = biological target: T2, NKp46 mutant 6; assay: flow cytometry on HEK293T cells transfected with NKp46 mutant 6 (R101A, V102A), antibody titrated 0.001-1 ug/ml
NKp46 mutant Supp7 = biological target: T3, NKp46 mutant Supp7; assay: flow cytometry on HEK293T cells transfected with NKp46 mutant Supp7 (Y121A, Y194A; printed 'Mutant S7'), antibody titrated 0.001-1 ug/ml
NKp46 mutant 2 = biological target: T4, NKp46 mutant 2; assay: flow cytometry on HEK293T cells transfected with NKp46 mutant 2 (K41S, E42A, E119A), antibody titrated 0.001-1 ug/ml
Protocol: All the anti-NKp46 antibodies were tested for their binding to each mutant by flow cytometry. A first experiment was performed to determine antibodies that lose their binding to one or several mutants at one concentration (10 μg/ml).

human FcRn (Example 10) = biological target: T9, human FcRn (Example 10) (human, UniProt P55899 24-297; P61769 21-119, limits assumed); assay: SPR, FcRn immobilized on CM5, SCK/Two state reaction
T9 construct: Construct not described; Beta-2-microglobulin is not mentioned; also called recombinant FcRn proteins
Protocol: SPR measurements were performed on a Biacore T100 apparatus (Biacore GE Healthcare) at 25° C. In all Biacore experiments Acetate Buffer (50 mM Acetate pH5.6, 150 mM NaCl, 0.1% surfactant p20) and HBS-EP+ (Biacore GE Healthcare) served as running buffer and regeneration buffer respectively. Sensorgrams were analyzed with Biacore T100 Evaluation software. Recombinant mouse FcRn was purchase from R&D Systems.
(§1) Recombinant FcRn proteins were immobilized covalently to carboxyl groups in the dextran layer on a Sensor Chip CM5. The chip surface was activated with EDC/NHS (N-ethyl-N′-(3-dimethylaminopropyl) carbodiimidehydrochloride and N-hydroxysuccinimide (Biacore GE Healthcare)). FcRn proteins were diluted to 10 μg/ml in coupling buffer (10 mM acetate, pH 5.6) and injected until the appropriate immobilization level was reached (i.e. 2500 RU). Deactivation of the remaining activated groups was performed using 100 mM ethanolamine pH 8 (Biacore GE Healthcare).

[3] = biological target: T8, Human NKp46 recombinant proteins; assay: SPR, bispecific captured on Protein-A chip, human NKp46 injected, 1:1 kinetic model
Protocol: SPR measurements were performed on a Biacore T100 apparatus (Biacore GE Healthcare) at 25° C. In all Biacore experiments HBS-EP+(Biacore GE Healthcare) and NaOH 10 mM served as running buffer and regeneration buffer respectively. Sensorgrams were analyzed with Biacore T100 Evaluation software. Protein-A was purchase from (GE Healthcare). Human NKp46 recombinant proteins were cloned, produced and purified at Innate Pharma.
as §1, with “Protein-A” for “Recombinant FcRn”, “Protein-A was” for “FcRn proteins were”, “2000” for “2500”
Monovalent affinity study was done following a regular Capture-Kinetic protocol recommended by the manufacturer (Biacore GE Healthcare kinetic wizard). Seven serial dilutions of human NKp46 recombinant proteins, ranging from 6.25 to 400 nM were sequentially injected over the captured Bi-Specific antibodies and allowed to dissociate for 10 min before regeneration. The entire sensorgram sets were fitted using the 1:1 kinetic binding model.

NKp46 mutant Supp8 = biological target: T5, NKp46 mutant Supp8; assay: flow cytometry on HEK293T cells transfected with NKp46 mutant Supp8 (P132A, E133A; printed 'Mutant S8'), antibody titrated 0.001-1 ug/ml
NKp46 mutant Supp6 = biological target: T6, NKp46 mutant Supp6; assay: flow cytometry on HEK293T cells transfected with NKp46 mutant Supp6 (E104A, L105A; printed 'Mutant S6'), antibody titrated 0.001-1 ug/ml
[4] = biological target: T7, human NKp46 expressed at the cell …; assay: flow cytometry on HEK293T cells transfected with wild-type NKp46, antibody titrated 0.001-1 ug/ml; remark: listed apart in the source

T9 sequence (P55899 24-297 limits assumed, form in doubt, chain 1 of 2): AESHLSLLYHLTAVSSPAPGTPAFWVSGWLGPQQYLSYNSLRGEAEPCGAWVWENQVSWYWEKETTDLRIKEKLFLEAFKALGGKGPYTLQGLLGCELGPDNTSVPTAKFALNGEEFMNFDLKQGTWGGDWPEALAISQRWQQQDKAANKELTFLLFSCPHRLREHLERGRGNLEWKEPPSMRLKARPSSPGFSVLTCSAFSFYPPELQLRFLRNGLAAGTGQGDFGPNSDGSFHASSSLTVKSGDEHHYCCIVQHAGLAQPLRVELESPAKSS
T9 sequence (P61769 21-119 limits assumed, form in doubt, chain 2 of 2): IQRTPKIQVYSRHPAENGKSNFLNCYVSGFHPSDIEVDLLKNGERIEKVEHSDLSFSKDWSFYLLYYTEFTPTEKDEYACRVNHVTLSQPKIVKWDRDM

Binder	binding result (NKp46 mutant 19)	binding result (NKp46 mutant 6)	binding result (NKp46 mutant Supp7)	binding result (NKp46 mutant 2)	Kd (human FcRn (Example 10)) [nM]	Kd [3] [nM]	koff [3] [s⁻¹]	kon [3] [M⁻¹ s⁻¹]	other results
B1	binds								binding result [1]: binds
B2		binds	binds	binds					Kd [2]: 20 nM; koff [2]: 0.00433 s⁻¹; kon [2]: 222000 M⁻¹ s⁻¹
B3					2.6	67	0.0051	75600	
B4					6	63	0.00503	79300	
B5	binds	binds	binds	binds					binding result (NKp46 mutant Supp8): binds; binding result (NKp46 mutant Supp6): binds; binding result [4]: binds

Reference: patent publication US20240141042A1 (INNATE PHARMA, published 2024)
